According to the domain aggregation screens of Martell et al. (2025):

Test: soluble fraction after stress (log2 fold change); higher = more stays soluble; pooled small domains, quantitative proteomics
Details: stress: pH 4
Outline: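 Custom libraries of small protein domains were pooled and measured with high-throughput quantitative proteomics after pH 4 stress. The read-out is the fold change in the amount of each domain that stays soluble after the acid stress, taken as a measure of aggregation propensity. Fold changes are on a log2 scale, and higher values mean more of the domain stayed soluble.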

| Sequence | soluble fraction (log2) |
| --- | --- |
| HMGEQVAVPDVTKKSVREVNNILTSAGLRLQIEGSGISVRQDPPADTMVAPDTVVTVSFEPP | -0.0261 |
| HMGNLASGAYEQIKRRILSLEYLPGSILQERGLAEELGISRTPVREAIHRLSQEGWLKINSRKNIRVR | -0.482 |
| HMIVEIVPSALHGERVDRIVAFILDVSRSVASGLVERGAVHVDGSVETSGKVRLVEGQEVSVDPSQVPG | -0.528 |
| HMQYDESSQLGERFLNQALNALKADPDKVGDAQWEKLLKENSAKSRQEVLADIGLGKQLAIVIARELLS | -0.37 |
| HMRATLTDETARVVQEPTSESISLTSLRKGEEFEIGKVIRKKKEVWVTVTTSSGVKGYISGDTHIF | ≥ 0.43 |
| HMKEIKAPNKINAHLIEEWRSQHPTELFPEEKVDLIYYKGEEYYFVIEEKNELGEIEEWYFAYDGGIDYV | -0.373 |
| HMNEDFSEIIAAVKKFAVDNLSLSTLSDEELEEQIKTITDNMIGNRYVSIKNRVDIAQQVFSSIR | -0.435 |
| HMVRSEDLIGLQGRITLATDVETRGFVELSVKGSLLRRPALSLKGPLAKNTAVVVTASNDHTLEVEAL | -0.77 |
| HMTSSKISFIDPVNGGKVSVSLENSTLEKLQNRFGVNSVVRNEAGDVELKDKAQEFVAGWFADIAYTRG | -0.89 |
| HMPGTEAQDGEVLLDALRRIHPDSSTGTLRRMLTQGRVQVDGTTVHAAKAELTSGQHVEVVAR | -0.0746 |
| HMWWTPIILRDALFGVQRFEDFQKNLDVSRATLSSRLTRLVDEGLMEKVEYQQHPVRHEYVLTEKGR | 0.194 |
| HMEDIKHVVANNIKKYRKEERLTLQQLSYLTGVSKTMLNQIETEKSSPSITILWRISSGLKIPLSKLISSP | 0.143 |
| HMKGQNRSEITAGARVKVVQKQDQRTGALTEGIVRDILTRSPHHPHGIKVRLESGIVGRVKDVL | -0.287 |
| HMPGRKKLAIIYKNDYIGAFNLADSYRDSYEVSMYAFPKKVGKLLNRLELQGFNAYVIYDKDNEENNFNTI | 0.00545 |
| HMYRPQQEFTMRDLFQNNLNGSESASVRRDALGAELGIGYGNAKRFLERLNHYGVSREEFTAALEKLESE | -0.205 |
| HMDEPGAGYKWREDVLLRVMASHGIEESLRDDFVRHAVGFDNDDNMYLKKVEIENAAAAWVAN | -1.36 |
| HMWAVDFVLLDKDDQRIGNAVAYRDDRTKGMDEEVYRTVPEEELYASTGIQKQIFNSIYQLMAWKK | -1.25 |
| HMVMAELRISVDRLQIGNYIKLPLSWRDHPFLLSSFMIKKEEQIQLIRQLRLKHVFIIPEKSDAPPKPA | -1.81 |
| HMQMEDTDALLQVAKEVVAENQDTVEAYLGGREKAFASLIGAAMKKTRGKANPKVIRQLILDLIQ | -0.432 |
| HMINDKLQHLFSLFPAMDKELKRKGITRQILWVEYKKQYPLGFGRSQFNSYFAAWKAQVSPS | 0.204 |
| HMLNPMILLTKGGENIRLDKFLSSHLSDLSRTQIQKMVKEGLVLVNGEPSKVGLKLDGSETIQYTLPK | 0.254 |
| HMLSLGIMEADMLKTGKHTISGISKATPEQRQKIDSDIEELKKKYPEKNITSKVENDNLIVESGVTAP | 0.0639 |
| HMATTAGIEKYLGSGLIKGIGPIYAKKIVRKFKEDTIRIIDEEPDRLLEVEGIGQKRLEIIKQAWQQQKE | -0.826 |
| HMDFPYISGIEIAAIKNREFIRIETDKAQEIAIALDKSGIPFSARFSDAEMVLTYDGSYKEQVEDIIAKA | -0.808 |
| HMSDAQIKASINDLWFKYNLETFAKLNLNVNQGRVLVTGIVQNPEHRLEAIRLVWTVDGVQQVINEIQVAE | -1.23 |

| Sequence | soluble fraction (log2) |
| --- | --- |
| HMDPTEPLFVGVVTAEPYLNIREYPTTQSKDLGDLFPGMHVNVYEIVPNWYRIDDGWVASAWVKRDWGGG | -0.314 |
| HMQVITEPFQEKYREFINMSTVTQRLEERETLSFTAQTVEGRWLTIIIVPQGYDKTGKLSTVLVANR | 0.111 |
| HMYPATGTVVTAGGHLNMRSEPDRSGAILARIPNGTALTLTGKNGDWYAATYAGRSGYVSAQYISLS | -0.13 |
| HMKKSIRIFELMKAKVAAEIFDQMILEGKIEDVFDIIVRLKDSNVSNIMKTMSVENSSRLVQKLERYNKD | -0.626 |
| HMRMTRQRKVILEELGKVYTHPTADEIYTMVKEKLPNISLGTVYRNLDLLAENNQVLKLETAGNIRRYD | -0.375 |
| HMFEPLTDREREVLQALADGLSDKEIAERLYISPATVRTHITAILGKLDANSRLQAVVVAARHNLVTL | -0.926 |
| HMYSKQRELIMEAVFKNRVHPTAEYVYKLLKKDHPELSLGTVYRNLNYWAENNMLKKINVPGGSDRFDGT | 0.236 |
| HMSYPEIFQSLTEREQKIADMIAEHLSNKEIAEKMFLSEGTIKQYINQIYSKLQITGDIRNKRKQLIELFH | -0.0222 |
| HMILQTLSERVTETLRDWILHGHFKPGDKIEEVPIAERMGVSRTPVRAAFATLTNEGLIDHQPNRGYQVRV | 0.201 |
| HMAVNVNGIHLSSQQHEALVSIWRTGRMPEPHAGQKPWLWIQALRRRGLVSGNALRLTDKGRHIVQLLQ | 0.226 |
| HMGRMTRKDRALATDLYGRIVGNVDDFHEGRIDYETFSERQRGLWTTLDAAGPEVKRAVLADIRERL | 0.23 |
| HMGGLIDQSIQEIIDKYSVPGKKIQKAQRLKIVAEMHTKGIFKMRGGVQQAAQALGVTRYTVYNDLEVMN | -0.259 |
| HMQPDDELVRLLLIKIFNDKQLKVNPAVINYLLRRIDRSFESINNFVKKIDEFSLEKGRKITVNLVSGFF | -1.43 |
| HMSKRDDLLDQASEWLAKLDRDLTVVEERELKAWLGESAAHRETFIQMAKLWDKMESLSRLTDL | -1.06 |
| HMAIPTTDSDKATDAQIKQIKLLGDIHPNLKLDAWLERNHVTWETLTREQAGNMMKAIKNKYGD | 0.132 |
| HMQAPHLALSPREFQVLQGLLAGDALDIIAERLHLSAKTVSNHQTLIRQKLGVGNAVELLRYAQLHRL | -0.661 |
| HMSTALTPLTTREREVLALMAEGLTNSGIAARLVLTDRTVETHVSRILHKLGLGETTTNEHRRVLAVLRYL | -0.716 |
| HMATRAEQMAKTHQAILDTARELFLRNGYDATSTRDIANAIGITQPALYHHFKDKEVIFLAVI | 0.101 |
| HMHDYYDSIDAVTHDKSYESNLVFALKLGYTETQLQKALLKLGKKAREDQILEELIRIQKSSKA | ≥ 0.43 |
| HMNSGFEVFREVVNQGSFIGAANALGISAPAVSKQIKLLENRLGLLLLYRTTRNVTLTDIGKQLFDTLDNS | -1.37 |
| HMSGWIATGTATSTGNDVRVRSTPDATVNNNILLTLNKGNRFEIDGQTQNGFYHIKVNDTIGWISGLYVKE | 0.0378 |
| HMALMLGGLIVYLNTTAPRDDIDLIELSKDTKAMAAFGNKLASPDYNGKQFALDWHELSRDEIMSKYFS | -1.82 |
| HMKKAENEKLNIPYDVTEFLASSIKDDIRMMEGAMVKLLALSSLTKQDITQSLAKRVIQDVLGSSA | -0.451 |
| HMQNMVYVATKDIPAGGVIDQDSVSKTAISTSIDTSLYITDDDLGKIAVVNISQGQSVFSNMVGT | -0.585 |
| HMSTASPEELRQTPERRRLIEYLREHGGHGRTSEIAAALGIDDSTASRLLRRLADNGLIVRTQYGEYTLLQ | -0.0496 |

| Sequence | soluble fraction (log2) |
| --- | --- |
| HMGSRAEAKEFLQTMLADGRQLATDMEEARQAHDIADRTLRRARKELNVQVYRDGNAWYWELPTPIK | -0.567 |
| HMGEQVFSRKDLAINGNDLKAVFGWPPGPKYREALDQLFHWVLEDPARNRRETLLAYLHSLYD | -0.774 |
| HMYFFNTFTQRLFDNPELTQEEAIRQMYPGISGVQTAEKLQENFMADVYIQAAIRQEIVVQLIR | 0.22 |
| HMGRWQPSTSAKQHGESALLLERLLHLERLTVSEAFHVLTINHRLNLSLPEYRSLLAVVQLPK | -1.31 |
| HMTVLVPNLTGKTLLEAEILLDQAGLKKGDVYSESNKNVPKDHIIRQKPAPNTKIQKGATIDIYRSLGPE | -0.0793 |
| HMTETIPVSERLFRYLFEEKGKRVQKIQQTSHARVRMERSPYSVVVSGTKDAVEAAMESLKATEKELLEA | 0.321 |
| HMTHHGHSIKRIRDMLGIKQETLAAELNMTQQAFSKLEQKEQIEDEMLDKIAKILHVSTEALKT | -0.459 |
| HMTKYVEGQKYVFEFRDGTITIGTYLRTGEGNIYIKDLSGEDIYIPKIMIAQIHLATDDNVKGDEFWF | -1.17 |
| HMKFYIHEIIGFNAVDKVAGIVGKVININEDSPQKKLVVNYNGKEVFIPLVDEIVRKIDKQKNEVLITMP | -0.174 |
| HMGELGPGSRGQAVRALQERLMALGFPLARFGADGIFGRETTGALRAFQHVAGLSPTGLGDHETLKWLGII | -0.351 |
| HMAVANEAIANINMKEVKQAIHNLPEIFKNPFLLYFDGYKYHEIAEMLDEPLGTIKSRIHFARKLLKSHI | 0.22 |
| HMANKLTSTNLAKQHKMGLSEMYAELMNSGYLIEKDGKYELTPLGISIGGESKPNRYKKGEFYFLWPSDIS | 0.22 |
| HMAHKRVDGTIVTPLTADTIVLRTGTHGEQPFEIRDTTRHKLESLQKGDMVILLIDTDNKVIDVAIPP | -0.263 |
| HMELNDEELIKGIQELLTKIGYDPGEINGVLGIKTSSAISAFQQSRNKAITGEADLDLLVQLQIELRKITT | -1.32 |
| HMENWMPNLVNQDKRLAINTLRELGFTEEAGNLVIREETSEDVTKDYVISTDPVAETDLADVEKVTLVVSS | -0.219 |
| HMFGSKDVKRAIEDYAAAMSSQPRALSAPQRKVLIRHLATSGLLQLRGAAKIVADELGISRASVYNALKV | 0.193 |
| HMLTRSTVNVETGTAAIGLGKLYGVYDMSRKGLKYSFSVDSDAMTKVMEMLLPLGIKSLTVEPPS | -0.658 |
| HMPLVIIRGIEGVFSSEEKAEAIRKVTDALVSVKGENVRGFAWVVFEEVKSGDWGIGGESITAEKVIMSL | -0.39 |
| HMLWTDTKYVTVPDFVGKEPKEIESSYLYNIEYHGEGTKVISQQPAAFSRTIEGGTVRLYLG | 0.186 |
| HMEKKPYGEMHNVMLTDEELEKLRHDYPAHFAEYIQRLSLHIDAKGARYKSHYAVIRKWLIADGVKA | 0.0221 |
| HMIMHLNQIIRNKRLAAGLTQEALAQKVGVTAPAVSKWEKGISYPDITLLPILARNLNTDVNTLLDFSA | 0.0644 |
| HMEMVSMPGLTGSTLEFATKTLTENELKYEVVYIVDASAESGLIIRTYPTEGEMVSKKTSTIYLYIKE | -0.481 |
| HMAPRSSAVYFYLSQVALKKNQPRKAEAMARRGLTVSQDANRRRALWQLILRSGQAQNNTRVIREAQQAL | -0.0754 |
| HMQISNEEELEKIIENVIESNPEKVKAYQSGKSGLIGFFMGQVMKESGGQANPNLVNQILKGKL | 0.109 |
| HMNKEHINLDSSKFLSLLNKTKISMSNDETRHYLNGIYIHPTVSNKSSYLTGVATDSHRLSSSSIPVD | -0.311 |
